From the nanobody polyreactivity screen of Harvey et al. (2022) come the findings set out here.

This data set is described as follows: yeast display, Sf9 membrane polyspecificity reagent, FACS + sequencing; frameworks hold sequencing errors. In short, it runs like this:
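Galactose-induced (36–48 hours) yeast carrying a synthetic nanobody display library were exposed to 10% biotinylated, detergent-solubilized Sf9 membrane reagent at 4 °C for 1 hour. FACS followed streptavidin microbead enrichment, using low and high (top ~1%) gates for expression (anti-HA) and reagent binding (streptavidin). Colony PCR, MiSeq 2 × 250 sequencing and CDR-length filtering followed. Labels for polyreactivity reflect the gate of origin.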
“QVQLVESGGGLVQDGGSLPLSCAASGHIFIYYTMGWYRQAPGKERELVAGITIGGSTNYADSVKGRFTISRDNAQNTVYLQMNSLKPEDTAVYYCSTTWYLVASWYVAIFDYWGQGTQVTVSS”: the “polyreactivity (PSR sort gate)” value was “low polyreactivity”. Take “QVQLVESGGGLVQEGASLRLSCAASGFIFLQYAMGWYRQAPGKERELVAAITSGGGTNYADSVKGRFTISRDNAKNTVYLQMNSLKPEDTAVYYCAARTWPWVLGATQDDYWGQGTQVTVSS”: the “polyreactivity (PSR sort gate)” value was “low polyreactivity”. With “QVQLVESGGGLVQEGGSLRISCASSGFIFASYAMAWYIQAPGKERELVAAITQSGGITYYADSVKERFTISRDNAKYTVYLQMNSLKPEDTAVFYCNTPLLKRTTRCRERNYWGQGTQVTVSS” the entry was “low polyreactivity”; with “QVQLVESGGGLVQEGGSLRLICAASGFIFRYYAMGWYRQAPGKERELVAAISRSGGSTSYADSVKGRFTISRDNAKITGDFQMNSLKPEDSAVYYCAKYVAFHYKQYDFNWGQGTQVYVSS”, “high polyreactivity”; with “QVQLVESGGGLVQEGGSLRLICAASGRTFYPNAMGWYRQAPGKERELVADITYSGASTYYADSVKGRFTISRDYAKNTVYLQMNSLKPEDTAVYYCNADDSCVLVYVPYDYWGQGTQVTVSS”, “low polyreactivity”. With “QVQLVESGGGLVQEGGSLRLICAASGSIFEVNAMGWYRQAPGKERELAATITYSGGSTYYADSVKGRFTISRDNAKNTVYFQMNSLKPEDTAVYYCATDYVDWELYIYDYWGQGTQVTVSS” the entry was “low polyreactivity”; with “QVQLVESGGGLVQEGGSLRLICSASGSTFRANAMGWYRQAPGKERELVAAITSSGGSTYYADSVKGRFTISRDNAKNTVYLQMNSLKPEDTAVYYCAKENAPSRLTYGYWGQGTQVTVSS”, “low polyreactivity”. With “QVQLVESGGGLVQEGGSLRLSCAASASTLYKYAMGWYRQAPGKERELVAAISWSGSSTYYADSVKGRFTISRDNAKNTVYLQMNSLKPEDTAVYYCNARWQEPLKYDYWGQGTQVTVSS”, the “polyreactivity (PSR sort gate)” value is “low polyreactivity”. As for “QVQLVESGGGLVQEGGSLRLSCAASGFIFGWYAMGWYRQAPGKERELVATISSSGGSTYYADSVKGRFTISRDNAKNTVYLQMNSLKPEDTAVYYCAARPRRYYSAQDMDYWGQGTQVTVSS”, the “polyreactivity (PSR sort gate)” value is recorded as “high polyreactivity”. In the case of “QVQLVESGGGLVQEGGSLRLSCAASGFIFGWYGMGWYRQPPGKDSELFAAITWSGVRTYYADSVKGRFTISRDNAKNTVYLQMISLKPEDTAVYYCARAGGYVGRGYKDQDGRGDYWGQGTQVTVSS”, the “polyreactivity (PSR sort gate)” value is on record as “high polyreactivity”.

Turning to “QVQLVESGGGLVQEGGSLRLSCAASGFTFRYYAMGWYRQAPGKERELVAAIRWNGGSTYYADSVKGRFTISRDNAKNTVYLQMNRLKPEDTAVYYCNAAYSYGRYEYVYWGQGTQVTVSS”, the “polyreactivity (PSR sort gate)” value is given as “high polyreactivity”. Next, “QVQLVESGGGLVQEGGSLRLSCAASGFTFVGYAMGWYRQAPGKERELLASIPWGGDRTYYADTVKGRFTISRDNAKNTDYLQMNSLKPEDTAVYYCNAQYEIWRVTFSPYDRWGYDYWGQGTQVTVSS”: “low polyreactivity”; “QVQLVESGGGLVQEGGSLRLSCAASGIIFSIYAMGWYRQAPGKERELVAVISRSSGSTYYADSVKGRFTISRDNAKNTVYLQMNSLIPEDTSVYFCAARKNRAYGYWGQGTEVTVSS”: “high polyreactivity”; “QVQLVESGGGLVQEGGSLRLSCAASGITFGRYAMGWYRQAPGKERELVAAISWSGGSTYYADSVKGRFTISRDNAKITVYLQMNSLKPEDTAVYSCNARGFPGKFGYWGQGTQVTVSS”: “high polyreactivity”.

Take “QVQLVESGGGLVQEGGSLRLSCAASGITFKTYAMGWYRQAPGKESELVATINRGSRTNYADPVKGRFTISRDNAKNTVYLQMNSLKPEDTAVYYCAAHYTTFIPSPDGDYLGQGTQVTVSS”: the “polyreactivity (PSR sort gate)” value is on record as “low polyreactivity”.

In the case of “QVQLVESGGGLVQEGGSLRLSCAASGLIFGENAMGWYRQAPGKERELVAAISRRAGITYYADSVKGRFTISRDNAKNTVYLQMNSLKPVDTAVYYCAARKGAISSPYDYWGQGTQVTVSS”, the “polyreactivity (PSR sort gate)” value was “high polyreactivity”. With “QVQLVESGGGLVQEGGSLRLSCAASGLTFAGYAMGWYRQATGKERELVAAITTGGSTYYADSVNGRFTISRDNAKNTVYLQMNSLKPEDTAVYYCAARRVRKALVGYGYWGQGTQVTVSS”, the “polyreactivity (PSR sort gate)” value was “high polyreactivity”. Turning to “QVQLVESGGGLVQEGGSLRLSCAASGLTFFPYAMGWYRQAPGKERELVAAITTSDGTTYYADSVKGRFTISRDNAKNTVYLQMNSLKPEDTAVYYCAAVYSPRSVWWYDYWGQGTEVTVSS”, the “polyreactivity (PSR sort gate)” value is on record as “low polyreactivity”. With “QVQLVESGGGLVQEGGSLRLSCAASGLTFSPYAMGWYRQAPGKERELVATITIGGSTKYADSVKGRFTISRDNAKNTVYLQMNSLKPEDTAVYYCAVRSGYVTRRYDYWGQGTQVTVSS” the entry was “low polyreactivity”. Next, “QVQLVESGGGLVQEGGSLRLSCAASGRIFDVYVMGWYRQAPGKERELVDAISQSGGRTYYADSVKGRFTISRDNAKNTVYLQMNSLKPEDTAVYYCNTVTSLATNFSGFGYWGQGTQVTVSS”: “high polyreactivity”; “QVQLVESGGGLVQEGGSLRLSCAASGRIFGTNAMGWYRQAPGKERELVAAISRSGGSTYYADSVKGRFTISRDNAKNTVYLQMNSLKPEDTAVYYCATDGRHTYYYWGQGTQVTVSS”: “high polyreactivity”; “QVQLVESGGGLVQEGGSLRLSCAASGRIFKPYVMGWYRQAPGKERELVAAISWSGGASTYYADSVKGRFTISRENAKNTVYLQMNSLKPEDTAVYYCNAAKRNRYDYWGQGTQVTVSS”: “low polyreactivity”. “QVQLVESGGGLVQEGGSLRLSCAASGRIFPKYAMGWYRQAPAKERELVAAISQRGGSTYYADSVKGRFTISRDNAKNTVYLQMNSLKPEDTAVYYCAASYYRQSCEYDYWGQGTQVTVSS”: the “polyreactivity (PSR sort gate)” value is reported as “low polyreactivity”. As for “QVQLVESGGGLVQEGGSLRLSCAASGRISVRYGMGWYRQAPGKERELVATISQSGGSTYYADSVKGRFTISRDNAKNTVYLQMNSLKPEDTAVYYCAAETDYVRHARKYDFWGQGTQVTVAS”, the “polyreactivity (PSR sort gate)” value is listed as “low polyreactivity”. With “QVQLVESGGGLVQEGGSLRLSCAASGRNFDVNAMGWYRQAPGKERELDAAISSGGNTKYSDSVKGRFTISRDKSKNTVYLQMNSLKPVDSAVYYCKADGKAGGDYDYWVQGTQVTVSS” the entry was “low polyreactivity”; with “QVQLVESGGGLVQEGGSLRLSCAASGRNFGRYAMVRYRQAPGKERELVAAISSSGVATYYADSVKGRFTISRDNAKNTVYLQMNSLKPEDTEVYYCNSLYRVFYGFYYWGQGTQVTVSS”, “high polyreactivity”; with “QVQLVESGGGLVQEGGSLRLSCAASGRTFRINAMGWYRQAPGKERELVAAITSIAGNTYYADSVKGRFTISRDNAKNTVYLQMNSLKPEDTAVYYCAVDSVPWGFRGAYGLTRYYYWGQGTQVTVSS”, “low polyreactivity”. For “QVQLVESGGGLVQEGGSLRLSCAASGSIFSGYAMGWYRQAPGKERELVAGITWSGGSTYYADSVKGRFTISRDNAKNTVYLQMNSLKPEDTSVYYCAAKYYWYYSYSGIPLFDYWGQGTQVTVSS”, the “polyreactivity (PSR sort gate)” value is given as “low polyreactivity”.

“QVQLVESGGGLVQEGGSLRLSCAASGSIFYRYTMGWYRPAPGKERELVAAISSRGGSTYYADSVKGRFTISRDNAKNTVYLQMNCLKPEDTAVYYCAARYYRNPVFVIMDYWGQGTQVTVSS”: the “polyreactivity (PSR sort gate)” value is “high polyreactivity”.

As to “QVQLVESGGGLVQEGGSLRLSCAASGSIVTLYAMGWSRQAPGKERELVAAITWYGGSTYYADSVKGRFTISRDNAKNTVYLQMNSLKPEDTAVYYCAKDYLAGGPCEGHVEREYDYWGQGTQVTVSS”, the “polyreactivity (PSR sort gate)” value was “low polyreactivity”. With “QVQLVESGGGLVQEGGSLRLSCAASGSTFHSYAMGWYRQAPGKERELVAGINRTGGSTYYADSVKGRFTISRDNAKNTVYLQMNSLKPEDTAVYYCAAVSYYASDYRYDYWGQGTQVTVSS” the entry was “low polyreactivity”.

“QVQLVESGGGLVQEGGSLRLSCAASGSTFRRYAMGWYRQAPGKERELVASISRSGGSTYYADSVKGRFTISRDNAKNTVYLQMNSLKSEDTAVYYCSKKPYKSAYDYSTAYDYWGQGTLVTVSS”: the “polyreactivity (PSR sort gate)” value is reported as “high polyreactivity”. Next, “QVQLVESGGGLVQEGGSLRLSCAASGSTFRTYAMGWYRQAPGKERELVAAISGDTSTNYADSVKGRFTISRDNAKNTVYLQMNSLKPEDTAVYYCAAYWTTYATLWYDYWGQGTQVTVSS”: “low polyreactivity”; “QVQLVESGGGLVQEGGSLRLSCAASGTIFGIYAMGWYRKAPGKERELVAAISKSGGGTYYADSVKGRFTISRDNSKNTVFLQMNSLKPEDTAVNYCNVYVSKYRRFEYWGQGTQVTVSS”: “high polyreactivity”.

For “QVQLVESGGGLVQEGGSLRLSCAASVFIIDYYAMGWYRQAPGKERELVASISYNSVSTTYADSVKGRFTISRDNAKNTVYLQMNSLKPEDTAVYYCAATSWYWAYTYYYWGQGTQVTVSS”, the “polyreactivity (PSR sort gate)” value was “low polyreactivity”.

Consider “QVQLVESGGGLVQEGGSLRLSCAATGSIFSSYAMGWYRQAPGKERELVASINSAGSTNYADSVKGRFTISRDNAKITVYLQMNSLKPEDTAVYYCARGGAVVYLDYWGQGTQVTVSS”, for which the “polyreactivity (PSR sort gate)” value is “low polyreactivity”. As to “QVQLVESGGGLVQEGGSLRLSCADSGFIFRRYAMGWYIQAPGKERELVAAIRSDGSTNYADSVKGRFTISRDNAKNTVYLQMNSLKPEDTAVYYCAATYYSYTWFSQYYYWGQGTQVTVSS”, the “polyreactivity (PSR sort gate)” value is on record as “high polyreactivity”. For the sequence “QVQLVESGGGLVQEGGSLRLSCADSGSTFASYAMGWNRQAPGKERELVAAITDSGGSTYYADSVKGRFTISRDNAKNTVYLQMNSLKPEVTAVYDCAAEDQESNAAGGYWGQGTQVTVSS”, the “polyreactivity (PSR sort gate)” value is recorded as “low polyreactivity”. For the sequence “QVQLVESGGGLVQEGGSLRLTCAASGSTFSDYAMGWYRQAPGKERELVAAISKRGGRTYYADSVKGRFTISRDNEKNTVYLQMNSLKPEDTAVYDCAADLPNAKWYGYDYWGQGTQVTVSS”, the “polyreactivity (PSR sort gate)” value is given as “high polyreactivity”. On to “QVQLVESGGGLVQEGGSLRVSCAASGIIFSSYVMGWYRQAPGKERELVAAISKSGARTSYADSVKGRFTISRDNAKNTVYLQMNSLKPEDTAVYYCAATFRLERPTSKHPRYDYWGQGTQVTVST”, for which the “polyreactivity (PSR sort gate)” value was “low polyreactivity”.
